Assay results from publication PMC10602924.

B1: VEGFA 3'UTR WT RNA (ssRNA)
RNA: UGAGCCGGGCAGGAGGAAGGAGCCUCCCUCAGGGUUUCGGGAACCAGAUCUCUCACCAGGAAAGACUGA

How the values were obtained:
Experiment in all cases: EMSA
SerRS WT = SerRS WT (human, UniProt P49591 1-514)
SerRS deltaUNE-S = SerRS deltaUNE-S (human, UniProt P49591 1-469)
SerRS T429A = SerRS T429A (human, UniProt P49591 1-514, T429A)
Chain of SerRS T429A (P49591 whole entry T429A): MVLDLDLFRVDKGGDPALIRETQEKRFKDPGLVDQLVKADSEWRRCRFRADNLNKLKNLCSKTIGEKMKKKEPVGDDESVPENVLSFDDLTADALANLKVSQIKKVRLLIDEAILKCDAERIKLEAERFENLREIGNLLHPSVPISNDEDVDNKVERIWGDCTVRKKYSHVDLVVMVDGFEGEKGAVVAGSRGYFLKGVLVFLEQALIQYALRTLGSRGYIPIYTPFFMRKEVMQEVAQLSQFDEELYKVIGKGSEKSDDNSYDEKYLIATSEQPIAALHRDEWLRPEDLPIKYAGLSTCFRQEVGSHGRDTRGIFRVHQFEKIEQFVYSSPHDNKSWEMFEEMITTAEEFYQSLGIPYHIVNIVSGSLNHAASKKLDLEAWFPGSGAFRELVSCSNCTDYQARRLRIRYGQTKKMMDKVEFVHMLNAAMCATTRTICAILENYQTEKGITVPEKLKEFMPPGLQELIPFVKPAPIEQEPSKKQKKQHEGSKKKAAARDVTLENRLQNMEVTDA

Chain of SerRS WT (P49591 whole entry): as the sequence (P49591 whole entry T429A) above, with A429T counted along it
Chain of SerRS deltaUNE-S (P49591 1-469, stated change not applied): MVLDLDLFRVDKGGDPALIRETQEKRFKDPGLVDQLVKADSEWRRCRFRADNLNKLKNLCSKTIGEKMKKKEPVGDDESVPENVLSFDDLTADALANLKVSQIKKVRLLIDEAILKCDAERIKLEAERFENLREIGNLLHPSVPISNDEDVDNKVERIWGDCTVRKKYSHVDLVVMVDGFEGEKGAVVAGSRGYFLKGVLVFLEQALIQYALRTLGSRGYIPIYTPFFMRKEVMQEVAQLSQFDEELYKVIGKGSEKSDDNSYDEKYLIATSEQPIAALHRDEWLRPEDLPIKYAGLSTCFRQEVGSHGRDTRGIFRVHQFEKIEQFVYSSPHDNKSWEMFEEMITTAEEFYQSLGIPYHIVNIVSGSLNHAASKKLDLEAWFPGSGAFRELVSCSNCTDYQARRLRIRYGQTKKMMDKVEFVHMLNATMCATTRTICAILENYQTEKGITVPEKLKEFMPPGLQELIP

Binder | binding result (SerRS WT) | binding result (SerRS deltaUNE-S) | binding result (SerRS T429A)
B1 | binds | no binding | binds
UCAAAUGGAGCACCUGUUCCAUAUGUACGA (ssRNA) [MSH2 S612X RNA] | binds |  | 
